According to patent US20160297892A1 (Novo Nordisk, published 2016):

T1: human Protein S (plasma derived) (human, UniProt P07225 42-676)
T1 construct: Bought plasma-derived human Protein S (Haematologic Technologies or Enzyme Research Laboratories); also called Plasma PS; free Protein S
T1 sequence: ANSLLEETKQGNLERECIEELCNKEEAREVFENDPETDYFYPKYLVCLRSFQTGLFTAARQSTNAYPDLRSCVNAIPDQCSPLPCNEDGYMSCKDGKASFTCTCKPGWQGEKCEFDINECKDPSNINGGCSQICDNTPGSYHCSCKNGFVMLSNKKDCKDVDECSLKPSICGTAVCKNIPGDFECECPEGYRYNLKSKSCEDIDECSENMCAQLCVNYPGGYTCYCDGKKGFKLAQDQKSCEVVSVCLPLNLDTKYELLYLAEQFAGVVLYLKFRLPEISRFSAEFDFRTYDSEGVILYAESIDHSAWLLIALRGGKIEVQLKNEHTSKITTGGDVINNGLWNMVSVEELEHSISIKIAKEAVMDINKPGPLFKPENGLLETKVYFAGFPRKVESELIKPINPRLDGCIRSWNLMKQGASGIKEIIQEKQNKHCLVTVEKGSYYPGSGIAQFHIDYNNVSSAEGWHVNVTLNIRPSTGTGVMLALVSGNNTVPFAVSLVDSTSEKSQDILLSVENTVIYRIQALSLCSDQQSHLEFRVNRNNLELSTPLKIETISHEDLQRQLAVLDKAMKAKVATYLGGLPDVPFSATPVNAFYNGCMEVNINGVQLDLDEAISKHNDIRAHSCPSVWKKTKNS

T2: EGF1-4 domains of human Protein S with C-terminal HPC4 tag (human, UniProt P07225 114-286, partial hydroxylation of Asn or Asp in the EGF domains (detected by MS))
T2 construct: also called hEGF1-4; human Protein S EGF1-4
T2 sequence: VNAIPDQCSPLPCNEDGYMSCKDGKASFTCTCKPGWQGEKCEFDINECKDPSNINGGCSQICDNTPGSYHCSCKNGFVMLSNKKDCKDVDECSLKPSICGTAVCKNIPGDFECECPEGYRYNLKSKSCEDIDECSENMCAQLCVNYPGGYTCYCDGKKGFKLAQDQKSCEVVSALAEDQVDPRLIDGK

T3: EGF domain 1 and 2 of recombinant human Protein S (human, UniProt P07225 114-200, limits assumed)
T3 construct: domain: EGF domain 1 and 2; also called hEGF1-2
T3 sequence (looked up): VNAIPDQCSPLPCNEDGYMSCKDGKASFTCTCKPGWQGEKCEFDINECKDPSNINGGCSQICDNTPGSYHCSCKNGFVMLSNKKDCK

T4: EGF domain 3 and 4 of recombinant human Protein S (human, UniProt P07225 201-286, limits assumed)
T4 construct: domain: EGF domain 3 and 4; also called hEGF3-4
T4 sequence (looked up): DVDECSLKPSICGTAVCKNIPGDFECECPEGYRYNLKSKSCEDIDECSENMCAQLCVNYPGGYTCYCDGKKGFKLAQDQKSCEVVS

T5: Gla-domain deleted recombinant human Protein S (human, UniProt P07225 114-676)
T5 construct: also called hPS-dGla; desGla human Protein S
T5 sequence: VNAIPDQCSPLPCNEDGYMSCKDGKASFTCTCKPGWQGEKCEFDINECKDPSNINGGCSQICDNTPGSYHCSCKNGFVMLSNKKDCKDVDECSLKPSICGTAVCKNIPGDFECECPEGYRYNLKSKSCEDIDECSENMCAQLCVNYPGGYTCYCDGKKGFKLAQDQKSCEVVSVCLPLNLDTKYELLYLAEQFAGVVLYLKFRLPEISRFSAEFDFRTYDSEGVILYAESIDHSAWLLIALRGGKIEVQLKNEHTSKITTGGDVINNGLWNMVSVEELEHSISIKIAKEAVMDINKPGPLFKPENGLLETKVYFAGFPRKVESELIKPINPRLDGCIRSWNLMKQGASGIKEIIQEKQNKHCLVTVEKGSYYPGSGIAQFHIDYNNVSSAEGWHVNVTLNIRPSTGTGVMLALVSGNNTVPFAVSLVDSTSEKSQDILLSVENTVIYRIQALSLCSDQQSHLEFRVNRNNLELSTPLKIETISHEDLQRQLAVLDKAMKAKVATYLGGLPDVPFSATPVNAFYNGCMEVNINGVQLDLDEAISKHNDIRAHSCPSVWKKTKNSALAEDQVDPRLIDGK


Experiments:
Assay in all cases: ELISA, calcium-free TBS;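 also: binding of mouse antibodies detected by ELISA with an HRP-conjugated goat anti-mouse IgG secondary and TMB substrate development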
[1] = biological target: T1, human Protein S (plasma derived)
Experimental: (§1) After incubation and washing a HRP-labelled goat-anti-mouse IgG secondary antibody (Jackson) was added and the ELISA was developed after incubation and wash by addition of 3,3′,5,5′-Tetramethylbenzidine.

[2] = biological target: T2, EGF1-4 domains of human Protein S with …
Experimental: as §1

[3] = biological target: T3, EGF domain 1 and 2 of recombinant human …
Experimental: as §1

[4] = biological target: T4, EGF domain 3 and 4 of recombinant human …
Experimental: as §1

[5] = biological target: T5, Gla-domain deleted recombinant human …
Experimental: as §1

Binder | binding result [1] | binding result [2] | binding result [3] | binding result [4] | binding result [5]
M-hProtS-3F38A2 monoclonal antibody (antibody, mouse IgG1, V domains shown, Purified from hybridoma supernatant; mouse IgG1, kappa) VH: EVLLQQSGPELVKPGASVKIPCKASGYTFTDYNMDWVKQSHGKSLEWIGDINPNNGDTFYNQKFKGKATLTVDKSSSTAYMELRSLTSEDTAVYYCARSEIFTTAPDYGMGYWGQGTSVTVSS VL: ENVLTQSPAIMSASPGEKVTMTCRASSSVSSSYLHWYQQRSGASPKLWIYGTSNLASGVPARFSGSGSGTSYSLTISSVEAEDAATYYCQQYSGYPRTFGGGTKLEIKR | binds | binds | no binding | no binding | binds
M-hProtS-3F62A5 monoclonal antibody (antibody, mouse IgG1, V domains shown, Purified from hybridoma supernatant; mouse IgG1, kappa) VH: EVLLQQSGPELVKPGASVKITCKASGYTFTDYNMDWVKQSHGKSLEWIGDIDPNNGGTIYNQEFTGKATLTVDTSSSTAYMELRSLTSEDTAVYYCVRSEIFTTAPDYGVDYWGQGTSVTVSS VL: ENVLTQSPAIMSASPGEKVTMTCRASSSVSSSYLHWYRQKSGASPKLWIYSTSNLASGVPARFSGSGSGTSYSLTISRVEAEDAATYYCQQYSGYPRTFGGGTKVEIKR | binds | binds | no binding | no binding | binds
M-hProtS-2F382A1 monoclonal antibody (antibody, mouse IgG1, V domains shown, Purified from hybridoma supernatant; mouse IgG1, kappa) VH: EVKLEESGGGLVQPGGSMKLSCAASGFTFSDAWMGWVRQSPEKGLEWVAEIRGKANNHATYYSESVKGRFTISRDDSKSSVYLQMNSLRAEDTGIFYCCLITAFLFDYWGQGTTLTVSS VL: QIVLTQSPAIMSASPGEKVTMTCSGRSSENYMYWYQQKPGSPPRLWIYDTSNLVSGVPARFSGSRSGTSYSLTISSMEAEDAATYYCQQFNGYPYTFGGGTKLEIRR | binds | binds |  | no binding | binds
M-hProtS-6F128A2 monoclonal antibody (antibody, mouse IgG1, V domains shown, Tested as antibody purified from hybridoma supernatant; mouse IgG1, kappa) VL: SIVMTQTPKFLLVSAGDRVTITCKASQSVSNDVAWYQQKPGQSPKLLIYYASNRYTGVPDRFTGSGYGTDFTFTISTVQAEDLAVYFCQQDYSSPYTFGGGTKLEIKR V domain: QVQLQQPGAELVRPGASVKLSCKASGYTFTSYWINWVKQRPEQGLEWIGRIDPYDSETHYNQKFKDKAILTVDKSSSTAYMQLSSLTSEDSAVYYCARWGGSGYAMDYWGQGTSATVSS | binds | binds |  | no binding | binds
M-hProtS-6F153A2 monoclonal antibody (antibody, mouse IgG1, V domains shown, Tested as antibody purified from hybridoma supernatant; mouse IgG1, kappa) VH: QIQLVQSGPELKKPGETVKISCKASGYTFSDYSMHWVKQTPGEGLKWMGWMNTGTGEPTYADDFKGRFAFSLETSATTAHLQINNLKNEDTATYFCARRLYYGTGLAYWGQGTLVTVSA VL: DIVMTQSHKFMSTSVGDRVSITCKASQDVSTGVAWYQQKPGQSPKLLIFSASSRYSGVPDRFTGSGSGTDFTFTISSVQAEDLAVYYCQQHYSSPRTFGGGTKLEIKR | binds | binds | no binding | no binding | binds
M-hProtS-6F206A1 monoclonal antibody (antibody, mouse IgG1, V domains shown, Purified from hybridoma supernatant; mouse IgG1, kappa) VH: QVQLQQSGAEMVRPGSSVKISCKASGYAFSSHWMNWVKQRPGQGLEWIGQIYPGDGDTNYNGKFRGKAIVTADTSSSTAYLQLSSLTSEDTAVFFCAPGYHGTSYWFAYWGQGTLVTVSA VL: DIQMSQSPSSLSASLGDTVTITCHASQNINIWLSWYQQKPGNILTLLIYKASNLYTGVPSRFSGSGSGTDFTLTISSLQPEDIATYYCQQGQSFPLTFGTGTRLELKR | binds | binds |  | no binding | binds
M-hProtS-6F265A1 monoclonal antibody (antibody, mouse IgG1, V domains shown, Tested as antibody purified from hybridoma supernatant; mouse IgG1, kappa) VH: QVQLKESGPGLVAPSQSLSITCTVSGFSLTSYGVHWVRQPPGKGLGWLGVIWAGGRTDYNSALMSRLSISKDNSKSQVFLKMNSLQTDDTAIYYCARDYGNYNYAMDYWGQGISVTVSS VL: ETTVTQSPASLSMAIGEKVTIRCITSTDIDDDVNWYQQKPGEPPKLLISEGNILRPGVPSRFSSSGYGTDFVFSIENMLSEDVGDYYCLQSDTLPTFGGGTKLEIKR |  | binds |  | no binding | binds
M-hProtS-6F120A1 monoclonal antibody (antibody, mouse IgG1, V domains shown, Purified from hybridoma supernatant; mouse IgG1, kappa) VH: EIQLQQSGPELVKPGASVKVSCKASGYSFTDYNMYWVKQSHGKSLEWIGYIDPYNGGTSYNQKFKGKATLTVDKSSSTAFMHLNSLTSEDSAVYYCARERDYWYFDVRGAGTTVTVSS VL: DIVLTQSPASLAVSLGQRATISCRASKSVSASGYSYMHWYQQKPGQPPKLLIYLASNLESGVPARFSGSGSGTDFTLNIHPVEEEDAATYYCQHSRELPLTFGAGTKLELKR | binds | binds | no binding | no binding | binds

Results, then the binder that gave them:

binding result [1] | binding result [2] | binding result [3] | binding result [4] | binding result [5] | Binder
binds | binds |  | no binding | binds | M-hProtS-6F151A2 monoclonal antibody (antibody, mouse IgG1, V domains shown, Purified from hybridoma supernatant; mouse IgG1, kappa) VH: EVQLQQSGAELVRSGASVKLSCTASGFNIKDNYIHWVKQRPEQGLEWIGWIDPENGDTEYAPKFQGKATMTADTSSNTAYLQLSSLTSEDTAVYYCSAYGAAYWGQGTLVTVSA VL: not shown
binds | binds |  | no binding | binds | M-hProtS-2F380A1 monoclonal antibody (antibody, mouse IgG1, V domains shown, Purified from hybridoma supernatant; mouse IgG1, kappa) VH: EVKLEESGGGLVQPGGSMKLSCAASGFTFSDAWMDWVRQSPEKGLEWVAEVRSKADNHATYYAESVKGRFTISRDDSKSAVYLQMNSLRPEDTGIYYCTLTTAFLFDSWGQGTTLTVSS VL: QIALTQSPAIMSASPGEKVTMTCSVNSSVSYMHWYQQKPGSSPRLWIYDTSNLVSGVPGRFSGSGSGTSYSLTLSSMEAEDAATYYCQQYSGYLYTFGGGTKLEIKR
binds | binds |  | no binding | binds | M-hProtS-2F188A1 monoclonal antibody (antibody, mouse IgG1, V domains shown, Purified from hybridoma supernatant; mouse IgG1, kappa) VH: QVQLQQPGAELVRPGTSVKLSCKASGYTVTSYWMNWIKQRPEQGLEWIGRIDPNDSETLYNQKFKDKVILTVDKSSSTVYIQLSSLTSEDSAVYYCARWAGSGYAMDYWGQGTSVTVSS VL: QIVLTQSPALLSASPGEKVTMTCSASSSVSYMYWYQQKPGSSPKPWIYVTSNLASGVPARFSGSGSGTSYSLTISSMEAEDAATYYCHQWSSDPYTFGGGTKLEIRR
 |  |  | no binding |  | M-hProtS-6F216A3 (mAb 0914) monoclonal antibody (antibody, V domains shown, Mouse IgG1, kappa) VH: QVQLQQPGAELVRPGASVKLSCKASGYTFTSYWINWVKQRPEQGLEWIGRIDPYDSETHYNQKFKDKAILTVDKSSSTAYMQLSSLTSEDSAVYYCARWGGSGYAMDYWGQGTSVTVSS VL: QIVLSQSPAILSASPGEKVTMTCRASSSVSYMYWYQQKPGSSPKPWIYATSNLASGVPARFSGSGSGTSYSLTISRVEAEDAATYYCQQWSSIPPTFGGGTKLEIKR
